Data set [1] concerns the target GAGE12I (Lumier fusion, HEK293) (human). The data set can be described thus: pull-down; Lumier (luminescence-based mammalian interactome mapping): protein A and Renilla luciferase fusions co-expressed in HEK293, lysed in 20 mM Tris-HCl pH 7.5, 250 mM NaCl, 1% Triton X-100, 10 mM EDTA, 10 mM DTT with Benzonase; protein A fusions isolated on IgG-coated magnetic beads …; luciferase bound/input normalised to a protein A dimer control and given as Z scores; both orientations.

Data set [2] relates to GAGE12I. Put plainly: EMSA. The note with it: EMSA: 20 mM Tris pH 7.4, 50 mM NaCl, 1 mM DTT, 5 min or as indicated, 20 C, 1 pg/ul DNA. Calf thymus DNA-cellulose pull-downs (P1, P2; undefined DNA, not …).

In publication PMC3447759 one finds Z score and K half data, which are given here for two substances.

GAGE12I (Lumier fusion, HEK293) (human), sequence (A1L429 whole entry, the tested form may be a part): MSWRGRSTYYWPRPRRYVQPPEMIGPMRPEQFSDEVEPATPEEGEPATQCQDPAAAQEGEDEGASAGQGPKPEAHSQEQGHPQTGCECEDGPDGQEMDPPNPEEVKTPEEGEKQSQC

As for “full-length GCL (Lumier fusion, HEK293) (from UniProt Q96IK5 1-515) (natural protein)”, in data set [1], the Z score was 3.4 to 5.3.

In the case of pUC19 90-bp EcoRI-PvuII fragment, the K half in data set [2] was under 7.3 µM.
